Measured values as given in US20250388678A1, “Methods, Combinations, and Uses for the Treatment of Muscle Invasive Bladder Cancer” (AstraZeneca AB, priority 2024, published 2025).

Assays:
PD-L1 = PD-L1 (Homo sapiens, UniProt Q9NZQ7); conditions: in vitro; cited from earlier work
[1] = NIAGARA phase III study: adverse events and immune-mediated adverse events; type: in vivo
Description: Adverse Events (AEs), Serious Adverse Events (SAE), and immune-mediated adverse events (imAE) were collected from the time of the patient signing the informed consent form until follow-up period as completed (90 days after last dose of treatment (Arm 1) or adjuvant phase study visits (Arm 2). Tables 3 and 4 outline the variables collected for adverse events and severe adverse events.
AESIs for durvalumab include but are not limited to events with a potential inflammatory or immune-mediated mechanism and which may require more frequent monitoring and/or interventions such as steroids, immunosuppressants, and/or hormone replacement therapy. These AESIs are closely monitored in clinical studies with durvalumab monotherapy and combination therapy. An imAE is defined as an AESI that is associated with drug exposure, required the use of systemic steroids or other immunosuppressants and/or endocrine therapy for specific endocrine events, is consistent with an immune-mediated MOA, and where there is no clear alternate etiology.
Serologic, immunologic, and histologic (biopsy) data, as appropriate, were used to support an imAE diagnosis. Appropriate efforts were made to rule out neoplastic, infectious, metabolic, toxin, or other etiologic causes of the imAE.
The overall safety profile is consistent with the known safety profile of durvalumab and chemotherapy. The addition of durvalumab to chemotherapy had no detrimental impact on backbone chemotherapy administration. AEs leading to treatment discontinuation in neoadjuvant phase were balanced between the two arms. The number of patients not undergoing radical surgery because of AEs due to neoadjuvant treatment was balanced in both arms. Rates of grade 3 or 4 AEs and AEs with outcome of death were similar between the two arms (See Table 6). The overall study period included AEs that occurred between the first dose of study treatment, and whichever occurred first: 1) 90 days after the last dose of treatment, surgery, or last adjuvant visit; 2) date of first dose of subsequent anti-cancer therapy; or 3) data cut-off date.

[2] = test system: muscle-invasive bladder cancer; experiment: NIAGARA phase III study: pathological complete response (pCR) at radical cystectomy; type: in vivo, human
Method: (§1) Dual primary efficacy endpoints evaluated in this study were event-free survival (EFS; per blinded independent central review [BICR]) and pathological complete response (pCR; evaluated centrally). Therefore, if either the EFS endpoint or pCR endpoint was achieved, the study was considered a success.
Primary tumors and sampled lymph nodes were assessed for pathological response to neoadjuvant treatment by central pathology review using recommendations from the IASLC.
pCR efficacy assessment was accomplished by pathological review of radical cystectomy samples. EFS efficacy assessment were assessed by either RECIST 1.1 on imaging scans by pathology on biopsy samples if required.

xenograft model = conditions: via a T-cell dependent mechanism; cited from earlier work
[3] = test system: muscle-invasive bladder cancer; experiment: NIAGARA phase III study: survival efficacy endpoints (EFS, OS, MFS, DSS, DFS); type: in vivo, human
Description: The NIAGARA (NCT03732677) study described herein is a phase III, randomized, open-label, multi-center global study of durvalumab in combination with neoadjuvant gemcitabine+cisplatin before cystectomy (surgery to remove the bladder) followed by durvalumab as adjuvant monotherapy in patients with histologically or cytologically documented, resectable muscle-invasive bladder cancer and transitional cell carcinoma of the urothelium.
The study enrolled 1530 patients and randomized 1063 of those the patients in a 1:1 ratio to receive durvalumab+Gemcitabine+Cisplatin (D+G+C) combination therapy every three weeks (q3w) (Arm 1) or G+C combination therapy q3w (Arm 2) for 4 cycles of neoadjuvant chemotherapy prior to radical cystectomy. Patients started adjuvant durvalumab or placebo administration following surgery as soon as clinically feasible and within 42-120 days following surgery from surgery. Following radical cystectomy and during adjuvant therapy, patients in Arm 1 received durvalumab monotherapy every 4 weeks (q4w) for 8 additional cycles, and patients in Arm 2 received no adjuvant treatment.
Patients received a combination therapy comprising 1500 mg durvalumab or placebo via intravenous (IV) infusion q3w for up to a maximum of 4 cycles prior to surgery and a platinum therapy consisting of cisplatin and gemcitabine, the dose dependent on renal function. Patients having a creatinine clearance rate of about ≥60 mL/min, were administered cisplatin at a dose of about 70 mg/m^2 on day 1 of each cycle; and (b) gemcitabine at a dose of about 1000 mg/m^2 on days 1 and 8 of each cycle every 3 weeks (q3w) for a total of four cycles. Patients having a creatinine clearance rate of about ≥40 mL/min to <60 mL/min, were administered cisplatin at a dose of about 70 mg/m^2 on day 1 of each cycle; and (b) gemcitabine at a dose of about 1000 mg/m^2 on days 1 and 8 of each cycle every 3 weeks (q3w) for a total of four cycles.
A radical cystectomy was performed as soon as possible after completion of fourth administration of the combination therapy. The radical cystectomy was performed between […] following the last administration of the combination therapy. Male patients underwent radial cytoprostatectomy and urinary diversion along with bilateral pelvic lymph node dissection. Female patients underwent radical cystectomy. Elective hysterectomy and bilateral salpingectomy was optionally performed if no gross evidence of oncologic involvement was noted by the surgeon. Oophorectomy was omitted if clinically indicated. A urinary diversion creation was established via an ileal conduit, ileal neobladder, Indiana Pouch, or as per local practice. Bilateral pelvic lymph node dissection included following template to include the 1) external iliac, 2) obturator, and 3) internal iliac nodes, and 4) common iliac nodes to the level of the ureteric crossing and included a lymph node classified as cN1 at baseline if one was present. Removal of other nodes is per the surgeon's discretion. The boundaries of the template were the circumflex iliac vein and Cloquet's node, laterally by the genitofemoral nerve, medially by the bladder, posteriorly by the obturator fossa, and proximally to the ureter. Radical cystectomy was mandatory study procedure for all patients unless a patient is only able to undergo a partial cystectomy.
as §1
Secondary endpoints included overall survival (OS), and evaluation of the primary outcome in the PD-L1 high subgroup; pharmacokinetics and immunogenicity; patient-reported outcomes; and safety. […]

[4] = Safety Analysis Set, number of patients
[5] = durvalumab arm vs comparator arm
[6] = ITT, durvalumab arm vs comparator arm
[7] = ITT, of 533 (durvalumab arm) / 530 (comparator arm)
[8] = non-pCR subgroup, durvalumab vs comparator, exploratory post hoc
[9] = pCR subgroup, durvalumab vs comparator, exploratory post hoc
[10] = patients with radical cystectomy and post-RC baseline scan, vs comparator arm

Chain of PD-L1 (Q9NZQ7 19-290): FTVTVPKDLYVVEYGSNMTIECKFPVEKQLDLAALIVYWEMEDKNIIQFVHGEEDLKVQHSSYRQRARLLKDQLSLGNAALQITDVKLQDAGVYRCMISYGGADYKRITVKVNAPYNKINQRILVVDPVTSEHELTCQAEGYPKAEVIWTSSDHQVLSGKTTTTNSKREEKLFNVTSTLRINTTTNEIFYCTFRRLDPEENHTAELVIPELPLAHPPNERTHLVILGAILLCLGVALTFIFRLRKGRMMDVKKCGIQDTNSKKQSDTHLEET

Durvalumab: antibody that selectively binds PD-L1; trial arm: durvalumab+gemcitabine+cisplatin before radical cystectomy, then adjuvant durvalumab monotherapy
effect on PD-L1-mediated suppression of human T-cell activation (PD-L1): relieve PD-L1-mediated suppression of human T-cell activation | Anemia (%) ([1]; Safety Analysis Set): (38.7) % | Asthenia (%) ([1]; Safety Analysis Set): (17.5) % | Blood creatinine increased (%) ([1]; Safety Analysis Set): (18.5) % | Constipation (%) ([1]; Safety Analysis Set): (38.7) % | Decreased appetite (%) ([1]; Safety Analysis Set): (26.6) % | Diarrhea (%) ([1]; Safety Analysis Set): (20.6) % | Fatigue (%) ([1]; Safety Analysis Set): (36.0) % | Nausea (%) ([1]; Safety Analysis Set): (53.6) % | Neutropenia (%) ([1]; Safety Analysis Set): (25.8) % | Neutrophil count decreased (%) ([1]; Safety Analysis Set): (15.3) % | Patients with any AE (%) ([1]; Safety Analysis Set): (99.4) % | Pruritis (%) ([1]; Safety Analysis Set): (15.1) % | Pyrexia (%) ([1]; Safety Analysis Set): (20.8) % | Urinary tract infection (%) ([1]; Safety Analysis Set): (30.0) % | Vomiting (%) ([1]; Safety Analysis Set): (19.2) % | Anemia, number [1, 4]: 205 | Asthenia, number [1, 4]: 93 | Blood creatinine increased, number [1, 4]: 98 | Constipation, number [1, 4]: 205 | Decreased appetite, number [1, 4]: 141 | Diarrhea, number [1, 4]: 109 | Fatigue, number [1, 4]: 191 | Nausea, number [1, 4]: 284 | Neutropenia, number [1, 4]: 137 | Neutrophil count decreased, number [1, 4]: 81 | Patients with any AE, number [1, 4]: 527 | Pruritis, number [1, 4]: 80 | Pyrexia, number [1, 4]: 110 | Urinary tract infection, number [1, 4]: 159 | Vomiting, number [1, 4]: 102 | AEs leading to discontinuation of NAC, % ([1]; in vivo): (13.6) % | AEs leading to discontinuation of adjuvant durvalumab, % ([1]; in vivo): (7.8) % | AEs leading to discontinuation of neoadjuvant durvalumab, % ([1]; in vivo): (9.4) % | AEs leading to patient not undergoing RC, % ([1]; in vivo): (1.1) % | additional imAEs: dermatitis/rash, renal events, diarrhea/colitis, pneumonitis (each) ([1]; in vivo): ≤ 2% | imAE hyperthyroid events ([1]; in vivo): 3% | imAE hypothyroid events ([1]; in vivo): 10% | imAEs resolved at data cutoff, number of patients ([1]; of 111 (durvalumab arm) / 16 (comparator arm)): 45 patients | imAEs reported, number of patients ([1]; of 530 (durvalumab arm) / 526 (comparator arm)): 111 patients | imAEs resolved at data cutoff, percent of patients ([1]; of patients with imAEs): 41% | AEs leading to delay in surgery, % ([1]; outside recommended timeframe for RC of 56 days after last dose of NAC): (2.0) % | AEs leading to discontinuation of study treatment, % ([1]; overall study period): (21) % | AEs possibly related to any treatment: Max grade 3 or 4, % ([1]; overall study period): (40.6) % | AEs possibly related to any treatment: Outcome of death, % ([1]; overall study period): (0.6) % | AEs with outcome of death, % ([1]; overall study period): (5.1) % | Any-grade AEs possibly related to any treatment, % ([1]; overall study period): (94.7) % | Any-grade AEs, % ([1]; overall study period): (99.4) % | Any-grade AEs: Max grade 3 or 4, % ([1]; overall study period): (69.4) % | SAEs, % ([1]; overall study period): (61.5) % | imAEs grade 3/4 ([1]; overall study period): 3% | imAEs reported, percent of patients ([1]; overall study period, any grade): 21% | patients with pCR at the time of the radical cystectomy ([2]; ITT): 37.3% | difference in pCR with durvalumab in addition to chemotherapy [2, 5]: ~10% | pCR odds ratio [2, 5]: 1.60 | pCR rates among patients that underwent RC ([2]; durvalumab arm=469 patients, comparator arm=441 patients): increased | effect on tumor growth in a xenograft model (xenograft model): inhibits tumor growth | death from bladder cancer, percent of patients ([3]; ITT): 15.9% | patients with distant metastases or death (MFS events), percent ([3]; ITT): 28.5% | EFS Hazard Ratio (HR) ([3]; ITT population, durvalumab+cisplatin+gemcitabine vs cisplatin+gemcitabine, BICR, DCO April 2024): 0.68 | probability of 24-month metastasis-free survival ([3]; ITT, 24 months): 75.1% | disease-specific survival hazard ratio (HR) [3, 6]: 0.69 | metastasis-free survival hazard ratio (HR) [3, 6]: 0.67 | reduction in risk of death from bladder cancer (disease-specific survival) [3, 6]: 31% | reduction in the relative risk of death from any cause (OS) [3, 6]: 25% | reduction in risk of developing a distant metastasis or dying (metastasis-free survival) ([3]; ITT, durvalumab arm vs comparator arm, greater than 40 month follow-up): 33% | OS hazard ratio (HR) ([3]; ITT, durvalumab arm vs comparator arm, interim analysis): 0.75 | death from bladder cancer, number of patients [3, 7]: 85 patients | patients with distant metastases or death (MFS events), number [3, 7]: 152 patients | 24-month probability of disease-free survival ([3]; ITT, under heading Disease Specific Survival, 24 months): 89.2% | 24-month EFS rate ([3]; Non-pCR subgroup): 53% | 24-month OS rate ([3]; Non-pCR subgroup): 74% | DFS HR, non-pCR group ([3]; non-pCR group, vs comparator arm, exploratory post hoc): 0.82 | reduction in relative risk tumor growth, tumor spreading, not undergoing surgery or dying ([3]; non-pCR patients): 23% | reduction in the relative risk of dying from any cause ([3]; non-pCR patients): 16% | EFS HR, non-pCR patients [3, 8]: 0.77 | OS HR, non-pCR patients [3, 8]: 0.84 | DFS HR, pCR group ([3]; pCR group, vs comparator arm, exploratory post hoc): 0.58 | 24-month EFS rate ([3]; pCR subgroup): 92% | 24-month OS rate ([3]; pCR subgroup): 96% | EFS HR, patients with pCR [3, 9]: 0.58 | OS HR, patients with pCR [3, 9]: 0.72 | reduction in the relative risk of dying from any cause ([3]; patients achieving pCR): 28% | reduction in relative risk of tumor growth, tumor spreading, not undergoing surgery or dying ([3]; patients that achieved pCR): 42% | DFS hazard ratio (HR) [3, 10]: 0.69 | reduced risk of disease recurrence or death (DFS) [3, 10]: 31% | DFS HR, divergent or other histologic subtypes ([3]; total n=103, vs comparator arm): 0.45
